# In US20230348564A1, “ANTI-CANCER PROTEINS” (UNICHEM LABORATORIES LTD, priority 2020, published 2023):
# B1: SEQ ID NO. 2: recombinant lectin; variant of the S. rolfsii lectin amino acid sequence (reported as Rec-2 in WO 2010/095143) (protein)
# chain: TYKITVRVYQTNPDAFFHPVEKTVWKYANGGTWTITDDQHVLTMGGSGTSGTLRFHADNGESFTATFGVHNYKRWCDIVTNLAADETGMVINQQYYSQKNREEARERQLSNYQVKNAKGRNFQIVYTEAEGNDLHANLIIG
# modifications: In vitro synthesis
# Experiments:
# mechanistic biomarkers = test: modulation of mechanistic biomarkers (summary); assay type: cell-based
# Text: The effect of modulation of mechanistic biomarkers by recombinant lectin having the amino acid sequence of SEQ ID NO.2 is summarized as below: • increased levels of HGF, which binds to its receptor C-Met, and then acts on MAPK, • activated ATF-2 which is a tumor suppressor and acts via inducing apoptosis, • increased expression of c-kit, which is receptor for SCF, this acts downstream on MAPK, • increased the expression of JNK and inhibits p53, which activates AFT-2 resulting in apoptosis, • stimulated VEGF, VEGF-A and VEGFR2 expression, which activates Ras-Raf pathway, • inhibited expression of EGF, which binds to EGFR and exerts anticancer effect via Ras-Raf pathway or PKC, • stimulated Her-2, which activates Ras-Raf-MEK1-MAPK-ERK activation, • increased ERK and MEK-1 levels, which activated p90RSK and MMPs expression. ERK also acts via stat-3 and NF-KB, • stimulated GMCSF and IL-6 expression, which act via JAK-STAT pathway and activates NF-KB, • activated IL-4R expression, which connects to JAK-STAT pathway. IL-4R also acts via PI3K-Akt arm, • increased IL-8 levels, which acts via PI-3K-Akt-FOX3 arm. Akt also acts via Stat-3-NF-KB arm, where SEQ ID NO. 2 exerted an increase in Stat-3, • increased expression of Leptin, which binds to its receptor Leptin-R and acts on ERK pathway, • increased levels of cytokines (GMCSF, IL-6 and IL-8) may also interact with the immune system in tumor microenvironment to mount anticancer immunoprotective effect, • activated of TNF-α which connects to JNK pathway, • increased levels of endoglin-1 expression, which is a receptor for TGF-β. […] Binding to Tie-2 regulates PI3k pathway, • activation of Kallikrien-3 & Kallikrien-5 that acts as act a tumor suppressor, via induction of apoptosis, • activation of TRAIL & TRAILR2 causes apoptosis primarily in tumor cells, by binding to certain death receptors, • activation of Osteopontin (PON) which binds to receptors αVβ3 and CD44 and acts via Akt pathway, • inhibited Galectin-1 which either acts via Ras-Raf pathway or PI3k-Akt pathway.
# [1] = test system: MDA-MB-453 (Human breast metastatic carcinoma); test: MTT cytotoxicity assay; settings: 48h
# Description: All the cancer cell lines were procured from National Centre for Cell Science, Pune (India). Cell lines were maintained under conditions as mentioned in Table 23. The cell lines were sub-cultured by trypsinization followed by splitting the cell suspension into fresh flasks and supplementing with fresh culture medium.
# All the cell lines were grown in specified media at 37° C. with 95% Humidity and 5% CO2.
# The cells were trypsinized, counted by Trypan blue method in Neuebauer's Chamber and plated in wells of flat bottom 96-well plate at the density corresponding to 10×10^3 cells/well/200 μL medium.
# Following overnight incubation, the media in the plate was replenished with 180 μL/well and then the cells were treated with 20 μL of each test item at concentrations ranging from 2.5 μg/mL-80 μg/mL in triplicates, so that the total volume in each well is 200 μL.
# The untreated cells served as negative control. The cells were incubated with the test items or positive control for a time period of 48h. Following incubation, the cell cytotoxicity was estimated using MTT assay. Absorbance was measured at 540 nm. The percentage cytotoxicity corresponding to each treatment was calculated using the formula:
# % Cytotoxicity=(1−X/R)*100
# Where X=absorbance of wells corresponding to treated cells R=absorbance of untreated cells (cells maintained in growth medium only)
# IC50 value was calculated using Graph-Pad Prism version 4.01 software.
# Meningioma (IOMM-Lee) = test: cytotoxicity in Brain Tumor Cell lines by MTT assay; settings: 72 h
# U251MG cell line = test: Mitochondrial membrane depolarization by JC-1 staining; assay type: cell-based, Human; settings: 1 μg/mL-80 μg/mL
# Description: (§1) The evaluation of pro-apoptotic effect of SEQ ID NO. 2 in brain tumor cell lines U251MG & IOMM Lee was conducted. The cells were treated with SEQ ID NO. 2 at various concentrations around IC50 values. Resultant effect on apoptosis was determined via externalization of Phosphatidyl Serine (PS) on cell membrane by Annexin-V staining, mitochondrial membrane depolarization by JC-1 staining and cell cycle distribution analysis by Propidium Iodide (PI) staining. Increase in apoptotic markers in U251MG & IOMM-Lee cell lines reflected the pro-apoptotic potential of SEQ ID NO. 2 in brain tumor. • Externalization of PS on cell membrane by Annexin-V staining on U251MG cell line: SEQ ID NO.
# IOMM-Lee cell line [2] = test: as above; assay type: cell-based, Human; settings: 1 μg/mL-80 μg/mL
# Description: as §1
# IOMM-Lee cell line [3] = test: cell cycle distribution analysis by Propidium Iodide (PI) staining; assay type: cell-based, Human; settings: 1 μg/mL-500 μg/mL
# Description: as §1
molecule,measurement,setting,value
B1,ATF-2,mechanistic biomarkers,activated
same,Angiopoietin-1 & Angiopoietin-2,mechanistic biomarkers,activation
same,CD40L,mechanistic biomarkers,inhibited
same,ERK and MEK-1 levels,mechanistic biomarkers,increased
same,Fol-1 expression,mechanistic biomarkers,increased
same,GMCSF and IL-6 expression,mechanistic biomarkers,stimulated
same,Galectin-1,mechanistic biomarkers,inhibited
same,Galectin-3,mechanistic biomarkers,inhibited
same,Her-2,mechanistic biomarkers,stimulated
same,IL-4R expression,mechanistic biomarkers,activated
same,IL-8 levels,mechanistic biomarkers,increased
same,Kallikrien-3 & Kallikrien-5,mechanistic biomarkers,activation
same,Osteopontin (PON),mechanistic biomarkers,activation
same,PDGF-BB,mechanistic biomarkers,activation
same,Stat-3,mechanistic biomarkers,increase
same,TGF-alpha,mechanistic biomarkers,activation
same,TNF-α,mechanistic biomarkers,activated
same,TRAIL & TRAILR2,mechanistic biomarkers,activation
same,"VEGF, VEGF-A and VEGFR2 expression",mechanistic biomarkers,stimulated
same,expression of EGF,mechanistic biomarkers,inhibited
same,expression of JNK,mechanistic biomarkers,increased
same,expression of Leptin,mechanistic biomarkers,increased
same,expression of c-kit,mechanistic biomarkers,increased
same,levels of HGF,mechanistic biomarkers,increased
same,levels of endoglin-1 expression,mechanistic biomarkers,increased
same,p53,mechanistic biomarkers,inhibits
same,IC50,[1],>80 mg/L
same,IC50 Value,Meningioma (IOMM-Lee),18.37 mg/L
same,% Cytotoxicity,PA-1,72.0%
same,increase in mitochondrial membrane depolarization as compared to Control (Untreated),U251MG cell line,36.8%-60.9%
same,increase in mitochondrial membrane depolarization as compared to Control (Untreated),IOMM-Lee cell line [2],16.1%-36.4%
same,increase in apoptotic population; Sub (G0/G1) as compared to Control (Untreated),IOMM-Lee cell line [3],1.1-35.3 fold
